Molecular target: Human FcRn, biotinylated (human) (UniProt P55899)

Atezolizumab (antibody)
Kd: 19.7 nM
koff: 0.00877 s⁻¹
kon: 445000 M⁻¹ s⁻¹
